Measurements reported in US20240270840A1 (NECTIN THERAPEUTICS, published 2024).

Columns and labels:
Human CD112R (PVRIG) [1] = biological target: T1, Human CD112R (PVRIG) (human, UniProt Q6DKI7 41-171, limits assumed); experiment: SPR (Biacore), against the reference Ab
T1 sequence (looked up): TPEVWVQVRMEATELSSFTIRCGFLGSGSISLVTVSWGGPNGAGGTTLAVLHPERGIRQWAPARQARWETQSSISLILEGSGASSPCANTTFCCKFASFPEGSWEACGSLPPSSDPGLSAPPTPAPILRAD

Human CD112R (PVRIG) [2] = biological target: T1, Human CD112R (PVRIG); experiment: SPR (Biacore); purified full antibody
Human CD112R (PVRIG) [3] = biological target: T1, Human CD112R (PVRIG); experiment: SPR (Biacore); human CD112R as ligand, antibody as analyte
[4] = biological target: Cynomolgus monkey (Macaca fascicularis) CD112R expressed on cells (cynomolgus monkey (Macaca fascicularis)); experiment: flow cytometry on 293T cells; EC50 on cynomolgus CD112R against EC50 on human CD112R
Human CD112R (PVRIG) [5] = biological target: T1, Human CD112R (PVRIG); experiment: affinity of glycosylation-motif variants (Table 2; method not named there)
[6] = biological target: Cynomolgus monkey (Macaca fascicularis) CD112R expressed on cells (cynomolgus monkey (Macaca fascicularis)); experiment: flow cytometry on 293T cells expressing cynomolgus CD112R; 99-0.05 nM, three-fold dilutions
[7] = biological target: T2, Human CD112R expressed on cells (human, UniProt Q6DKI7 1-326); experiment: flow cytometry on 293T cells expressing human CD112R; 99-0.05 nM, three-fold dilutions
T2 construct: whole, on cells; also called HuCD112R; hCD112R
T2 sequence (looked up): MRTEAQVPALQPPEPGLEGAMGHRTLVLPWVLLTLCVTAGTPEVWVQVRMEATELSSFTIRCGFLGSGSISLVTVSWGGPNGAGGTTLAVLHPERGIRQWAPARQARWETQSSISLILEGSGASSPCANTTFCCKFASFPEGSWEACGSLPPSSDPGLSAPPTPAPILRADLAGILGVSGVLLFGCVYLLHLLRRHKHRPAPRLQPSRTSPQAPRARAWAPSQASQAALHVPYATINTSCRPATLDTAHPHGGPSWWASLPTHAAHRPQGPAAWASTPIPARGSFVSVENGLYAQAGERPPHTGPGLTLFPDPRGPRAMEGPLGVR
Method: The humanized mAbs were tested for binding of endogenous and overexpressed human and cynomolgus CD112R.

Human CD112R (PVRIG) [8] = biological target: T1, Human CD112R (PVRIG); experiment: SPR (Biacore); human CD112R as ligand, antibody as analyte; * limit of Biacore instrument
[9] = biological target: T2, Human CD112R expressed on cells; experiment: FACS, chimeric mAb 99-0.4 nM in three-fold dilutions on HEK 293T cells overexpressing CD112R, anti-human-APC 1:200
Method: For detection, anti-human-APC antibody (Ab) was used at 1:200 dilution, and cell binding was analyzed by FACS. FIG. 3C—8866 cells ([…]) overexpressing human Nectin-2 were incubated with 10 μg/ml of CD112R-Fc in the presence of isotype control Ab, or with the indicated clones at 4 μg/ml. Bound CD112R-Fc was detected by anti-mouse-Dy-647 1:250 dilution and analyzed by FACS. The blocking of CD112R binding exceeded 95% by all the variants.
Binding was analyzed by FACS and used for calculation of EC-50 values. […] The N31S variant, engineered to remove an N-Linked glycosylation motif at the CDR1 of the heavy chain, had improved (sub-nM) binding to human CD112R in this cell-based assay.

B1: chimeric clone-13(N31S)-hIgG1 (VH0K0) (antibody, V domains shown)
VH: QVQLQQPGAELVKPGTSVKLSCKASGYNFTSYWINWVKLRPGQGLEWIGDIYPGSYIPNYNEKFKNKATLTVDTSSSTAYMQLTSLASEDSALYYCAGGYFDVWGAGTTVTVSS
VL: DIVMTQSPSSLSVSAGEKVTMSCKSSQSLLSSGNQKNYLAWYQQKPGQPPKLLIYGASTRESGVPDRFTGSGSGTDFTLTISSVQAEDLAVYYCQNDHSYPYTFGGGTKLEIK
notes: Chimeric, human IgG1; Light chain with N31S (deamidation removal), also denoted N27dS by Kabat numbering; also called clone N31S; VH0Vk0
Question: What does the source list for B1?
Answer: fold more potent in binding CD112R than the reference Ab (Human CD112R (PVRIG) [1]): 3 to 30 fold; Kd (Human CD112R (PVRIG) [2]): 0.145 nM; Relative Kd (against VH0K0 N28T) (Human CD112R (PVRIG) [2]): 1.16; koff (Human CD112R (PVRIG) [2]): 3.05e-05 s⁻¹; kon (Human CD112R (PVRIG) [2]): 210000 M⁻¹ s⁻¹; koff (Human CD112R (PVRIG) [3]): 3.26e-07 s⁻¹; kon (Human CD112R (PVRIG) [3]): 340000 M⁻¹ s⁻¹; Ratio Cyno/Hu (EC50) [4]: 1.75; Kd (Human CD112R (PVRIG) [5]): 0.167 nM; Relative Kd (against VH0Vk0) (Human CD112R (PVRIG) [5]): 1; EC50 [6]: 0.97 nM; EC50 [7]: 0.55 nM; Kd (Human CD112R (PVRIG) [8]): 0.00096 nM; EC50 [9]: 0.7 nM
